B1: c27194 (antibody, V domains shown)
VH: QVHLVQSGDELKKPGSSVKVSCTAAGGTLNKYPITWVRQAPGQGLEWMGTLSPLFGTTDYGQKFQGRLTITTDGSAAHMVLAALTPDDTAVYFCATDKAMGVLPALHFWGQGTLITVSS
VL: EIVLTQSPGTLFLSPGERASLSCRASQNIGGLLAWYQQKPGQSPRLLIYDASNRATGIPARFSGSGSGTDFTLTISSLEPGDIAIYFCQQRSSWPVTFGGGTKVQIK
B2: c11461 (antibody, V domains shown)
VH: AGHLVESGGKLIRPGGSLSLSCVASGFTFRNAHMTWVRQVPGQGLEWIALMKSHADGSHTDYSPSVKNRCAISRDDSTSSLYLHLYNLQLDDTGIYFCVHLSSPDEWGLGTPVTVYS
VL: HIVLTQSPVTLSGSQGDTVALSCRANESLRSHLAWYQQRPGQRPKLLIYEVSRRPPATPPRFSGSGSGTDFTLIIRGLEPEDSAVYYCQQGDFWPFSFGQGTNLEIT
B3: c7484 (antibody, V domains shown)
VH: AVHLTQSGTEVKRPGTSVRISCKGSGFVFRDSFIYWLRQAPGKGPQYLGLIDPGNADTVYPDNFKDRVSITADTSVSTTYLELRRLQFDDTALYFCATTTYCSADSCELALDVWGQGTTVTVSS
VL: QSLLTQPPSASGAPGQSVTISCSGGASNIENNYVVWYQQVPGTAPKLIIYQDNVRPSGVPDRFSGSKSGASGSLLISGLRSEDEADYYCSSWDDSVRGPLFGGGTKVTVL
B4: c8597 (antibody, V domains shown)
VH: EVKLEASGGGLAQPGQSLRLSCIGSGFKFADYGLSWVRQTPGKGLQWVGFIRGRGSEATKHYAASVAGRFSMSRDDSKNIAYLQMKNLKTYDTGVYYCAREQYSFDFWSGYEDPYYYYMDLWGRGTTVTVSS
VL: DIQMTQSPAALSASIGDRVTISCRASQNIRDWVAWYQQKPGKAPNLLIYRASTLQTAIPSRFSASGFGTDFTLTISSLQPDDFATYFCQHYNSHFTGYSFGQGTKLEIK
B5: c5333 (antibody, V domains shown)
VH: EVQLLESGGGLVKPGGSLRLSCEASGYTFDSYGMSWVRQVPGQGLEWVSAINPNGRGTDYADSVKGRFTISRDNSRNILYLNMKNLRADDSAIYYCAKEWQLPFYPSLGPKFDFWGLGTRVTVSS
VL: YIALTQSPLSLAVTPGEPASISCKSSQSLLHSNGFHFLDWYLQKPGKSPQLLIFLGFRRASGVPDRFSASGSGTDFILQISRVEAEDVGVYFCMQGLQTPLTFGGGTKLEIK
B6: c6539 (antibody, V domains shown)
VH: QVRLIQSGTEVARPGSSVRVSCQVPGDILDKNAVAWVRQAPGQVPEFMGGLPSNFAYGVRAQKFEDRLSIIPDRSTNTVDMILRSVTSHDTAIYYCVTCPHRTTVIMSFYFEFWGQGTLVAVSS
VL: DVTVTQSPASVSASVGDRVTISCRASEDLMGRLAWYQQKPGHAPKLLISHTSTLQSGVPSRFTGSGSGADFTLTISSLQPEDSATYYCQQAQRFPPTFGQGTRLEIK
B7: c9368 (antibody, V domains shown)
VH: QMQLVQSGAELKKPGSSVKVSCKASGGTVSSESVSWVRQAPGHGLEWMGGIIPMFGATNYAQRFQGRVTITADTSTSTAYMELRGLKFEDTAMYYCAREGDPGDYDSGRGLSNAFDIWGQGTMVSVSS
VL: EIVMTQSPGTLSVSPGERATLSCRASQSVSSNLAWYQQKPGQAPRLLIYGASTRATGIPARFIGSGSGTEFTLTISSLQSEDLAIYYCQQYNSWPPQYTFGQGTKLEIK
B8: c5482 (antibody, V domains shown)
VH: EVQLVESGGGLAQPGGSLRLSCAASGFDFNNYWFYWVRQAPGRGLVWVARVNADGSNTRYVDSVRGRFTISRDSAKKIVYLEMNSVRDEDTAIYYCSRDTFVRVSSTHGYWSGMDVWGHGTTVTVAS
VL: SNELTQPPSVSVSPGQTATITCSGDVLSRQFVYWYQQKPGRAPVLVMYKDNERPSGIPERFSASSSGTRVTLTISGVQAEDEADYYCQSADNNGAHVFGTGTSVIVL
B9: c8517 (antibody, V domains shown)
VH: QVTLKESGPTLLRPADTLTLTCNFSGFSLTTDGVALGWMRQSPGKAPEWLAFLFYDDDKQYNPHLKSRLIISKASSTNQLVLAMTNMGPGDAGTYFCARLNVLVHDVPPRNYGLDVWGRGITITVSS
VL: DIVLTQSPVSLSVTPGQSASMSCKSSETLLHEDGKSYLYWYLQKPGQSPQLLIYEASKRFSGVSDRFTASGTGTHFTLQIDRVEVDDVGVYYCMENLKALTFGGGTRMEIK
B10: c7487 (antibody, V domains shown)
VH: AVTLRQSASEVKKPGTTLKMSCKGSGFSFAESFIYWFRQAPGKRPEYLGLIVPGVSDTVYPDNLKARVAITADTSIETVYLQLSSLTSEDTAVYFCATTTYCSPETCEVAFDVWGQGTTIIVSA
VL: QSALTQPPSASGTPGQRVTIPCSGGSSNVGNNFVSWYQQLPGTAPRLLIYQDNVRPSGVPDRFSGSKSGASASLVISGLRSEDEADYYCCSWEDSLRGPLFGGGTKVTVL
B11: c8603 (antibody, V domains shown)
VH: AVQFLQSGAEVKKPGESLKISCQDRGYGFNDYWIAWVRQMPGKGLEWMGLIYPDDSDTRYSPSFQGQVTILADKSINTAYLQWNSLKASDSAIYYCARLMVVDERSENTFDIWGQGTVVTVSS
VL: SSGLTQSPSLSVSPGQTATVTCSGDPLVNHFASWYQQQPGQSPILVIYQDNQRPSGIPERFSGSKTGNTATLTIGETQAADEADYFCQSWDITTAGMIFGGGTKLTVL
B12: c13155 (antibody, V domains shown)
VH: DVQLLESGGGLVQPGGSLRLSCAGSGYPFSTSDMGWVRQAPGKGLEWVAAIGRSGDGIHYAESVKGRFTISRDNSNNSIYLQMSDLRGDDTGVYYCAKSGWGWCKRGSCSLTVDYWGQGALVTVSS
VL: EIVLTQSPATLSLSPGERATFSCRASQSVGSYLAWYQQKVGQSPRLLIYDSVNRGEGIPGRFSGRGVGTDFTLTIDAVEPEDFAVYYCQQRQIWPLTFGGGTKLEIK
B13: c8452 (antibody, V domains shown)
VH: EVQLDQSGAEMRKPGTTVKISCKVSGYTTTTDYYVHWVQQAPGKGPQWVGLINVEDGDTIYAEAFQGRVSITADTSKRRVFLDLSGLTSEDSALYFCTTQSLETDTGDYVSAFDSWGQGTLVSVSP
VL: QSVLTQPPSVSAAPGQKVIISCSGRTSSVGTNFVSWYQQVPGAAPKLLIYDNENRPSGISDRFSASTSGTSATLAITALQSGDEADYYCGTWDSGLNPAIFVFGTGTRVSVL
B14: c9517 (antibody, V domains shown)
VH: QVKLQESGPGLVKPSETLSLTCVVSGVSISQSDYFWNWLRQTPGKGLEWLGFISYSGDSFFNPSLGSRLAMSVDTSSNHISLSLKSMTAADAAVYYCARTFCDDVKCYPLFDSWGHGKLVAVSS
VL: DIVMTQSPDSLPLSPGERASINCQSSQSVLYSSDNRNYLAWYQLKPGQPPKLLIYWASVRASGVPDRFSGSGSGTDFTLSISSLQAEDVAVYYCQQYYITPYSFGQGTKVEIR
B15: c8553 (antibody, V domains shown)
VH: QVQLVQSGAEMKMPGSSVKVSCKTSGGTFGSDSLNWVRQAPGQGLEWMGAIIPVFRTATYAQKFQGRVTITADTSTSTVSMDFYNLKSEDTAVYFCARFLLTSGDDIRDFFDLWGPGTMVTVSS
VL: PSELTQDPAVSVPLGQTVKISCRGDNLGTYYTSWYQQKAGQAPLAVIYGDNKRPSEIPERFSGSSSGNTASLTITGARAEDEADYYCNSRDKSGSHVVFGGGTKLTVL
B16: c7490 (antibody, V domains shown)
VH: QVRLIQSGTLVARPGSSVKVSCQAPGDILANDAVAWVRQAPGQSLEFLGGLPSNFAVGVRAPKFEDRLSIKVDRATKTVHMELRDLTFDDTAIYYCVTCPQRTSVVMSFYFQHWGQGSLVAVSS
VL: DIQMTQSPASVSASVGDRVTISCRASEEISGRLAWYQQRPGQGPKLLISHTSTLQSGVPSRFTGSGSGTDFTLTISSLQPEDSATYYCQQAQYFPPTFGQGTRLDLK
B17: c5407 (antibody, V domains shown)
VH: QMQLQESGGGRVRPLETLSLACSVSGGSISGDGYYWTWIRQTPGRALEWIGHIHHYGITNYNPSLKSRLTISLDKPKNQFFLTLTSVTVADTALYFCARTFYTFWSGPHDFLDLWGHGTAVIISL
VL: EIVMTQSPVTLSASPGERVALSCRASQSISTKLAWYQQRPGQAPTLLISGASSRASGTPARFSGSGSGADFTLTISTLQPEDFVLYFCQQYKEWPLTFGPGTKLEIK
B18: c9433 (antibody, V domains shown)
VH: QVQLVQSAAELRKPGESVKVSCKASGYRFTSYAISWVRQAPGQGLEWMGWMSPHSRTANYAQRFQGRVTMTTDTSTSTASMELRTLRSDDTAIYYCARRVYDWDIKETRLDPWGQGTLVTVSS
VL: not shown
B19: c754 (antibody, V domains shown)
VH: QVQLVQSGPEVKKPGASARVSCKASGYMFSNNGISWVRQAPGQGLEWMGWISPQNGETLYAHKFQGRVSLTMDTSTNTAFLELTRLRSDDTAVYFCAREAHEDCGEENCFAETWLDTWGQGTQIIVSS
VL: QSVLTQPPSASGTPGQRITMPCSGSNSNIGRRSVCWFQQFPGAAPKVVLYKDSQRPSGVPDRFSGSKSGTSASLTISGLRSDDEADYFCAAWDDSLNVWAFGGGTKLTVL
B20: c2785 (antibody, V domains shown)
VH: QVQLVQSGAEMKKPGSSVKVSCKASGGSFRSFTVNWVRQAPGQGLEWVGRIIAIFGSVDYAQKFQGRVTISADESTSTFYMDIRSLKSEDTAVYYCVRDGLVGGRDFWGQGTQVTVSS
VL: EIVLTQSPGTLSLSPGERATLFCRASQSIKKNYVAWYQQNPGQAPRLLIYGASSRATGTPDRFSGSGSGTDFTLTISRLEPEDFAVYYCQQYGSAQYSFGQGTKLEIK
B21: c9596 (antibody, V domains shown)
VH: EVQLVQSGAEVKKPGTTIKISCKVSGYSFTDSFIHWLKQTPGKGPEWMGLIDPEASDGNKLYAERFQGRLTITADTTTDTAYMELSSLTSDDTAIYYCASQSPSFSDNSRFYGFFDHWGQGTLVNVAS
VL: DIVMTQSPDSLTVSLGERATFNCKSSQSVLDSSDNKNYLSWYQQKPGRPPKLLIYWASIRRSGVPDRFSGSGSGTDFTLTISSLQAEDAAVYFCQQYHTAPFTFGPGTKVDIK

This assay concerns the target HIV-1 NL4-3 Env on infected cells (HIV-1 group M subtype B, NL4-3 (pNL4-3 …, strain)).
Consider B1, for which the binding result was “binds”.

As to B2, the binding result was “binds”.

With B3, the binding result is on record as “binds”.

In the case of B4, the binding result is listed as “binds”.

B5: the binding result was “binds”.

Turning to B6, the binding result was “binds”.

For B7, the binding result was “binds”.

For B8, the binding result is “binds”.

Regarding B9, the binding result is “binds”.

With B10, the binding result is given as “binds”.

Take B11: the binding result is recorded as “binds”.

For B12, the binding result is given as “binds”.

Regarding B13, the binding result is recorded as “binds”.

For the molecule B14, the binding result is “binds”.

Consider B15, for which the binding result is “binds”.

Take B16: the binding result is “binds”.

Take B17: the binding result was “binds”.

For the molecule B18, the binding result is listed as “binds”.

Take B19: the binding result is given as “binds”.

For B20, the binding result is “binds”.

With B21, the binding result was “binds”.

Values taken from PMC8196545 (Cell reports, 2021).
